Test: Epididymal fat weight and body weight, lactoferrin vs trivalent chromium vs combination (Test Example 5)
Type: in vivo, C57BL/6JNarl mice
Conditions: fed 7 weeks; for Body weight / Epididymal fat weight: high-fat diet
Description: The C57BL/6JNarl mice (N=70) are fed with a mouse diet (high-fat Rodent TestDiet, PMI Nutrition International Inc., MO, U.S.A.; 67% of calories provided by fat). The C57BL/6JNarl mice are randomly divided into seven groups and there are ten mice in each group. In one experimental group, the mice are fed with the mouse diet mixed with lactoferrin (NZMP lactoferrin, New Zealand, low dose: 40 mg/kg BW/day, high dose: 80 mg/kg BW/day). In another experimental group, the mice are fed with the mouse diet mixed with trivalent chromium (chromium (III) chloride hexahydrate, low dose: 40 μg/kg BW/day Cr^3+, high dose: 80 μg/kg BW/day Cr^3+). In yet another experimental group, the mice are fed with the mouse diet mixed with a lactoferrin/trivalent chromium composition (low dose: lactoferrin of 40 mg/kg BW/day with Cr^3+ of 40 μg/kg BW/day, high dose: lactoferrin of 80 mg/kg BW/day with Cr^3+ of 80 μg/kg BW/day). In the control group, the mice are fed with the mouse diet containing no other additive. The C57BL/6JNarl mice aged 8 weeks are fed for 7 weeks and then sacrificed to measure the weight of Epididymal fat and body weight, as shown in Table 5.
Accordingly, it can be known that the lactoferrin/trivalent chromium composition provides more significant efficiency in comparison to single lactoferrin or trivalent chromium.

[1] = High dose (lactoferrin 80 mg/kg BW/day and/or Cr3+ 80 μg/kg BW/day)
[2] = Low dose (lactoferrin 40 mg/kg BW/day and/or Cr3+ 40 μg/kg BW/day)

B1: Lactoferrin: NZMP lactoferrin, New Zealand; glycoprotein capable of binding metal ions, given alone as comparison (protein, UniProt P24627 20-708, looked up)
Lactotransferrin: APRKNVRWCTISQPEWFKCRRWQWRMKKLGAPSITCVRRAFALECIRAIAEKKADAVTLDGGMVFEAGRDPYKLRPVAAEIYGTKESPQTHYYAVAVVKKGSNFQLDQLQGRKSCHTGLGRSAGWIIPMGILRPYLSWTESLEPLQGAVAKFFSASCVPCIDRQAYPNLCQLCKGEGENQCACSSREPYFGYSGAFKCLQDGAGDVAFVKETTVFENLPEKADRDQYELLCLNNSRAPVDAFKECHLAQVPSHAVVARSVDGKEDLIWKLLSKAQEKFGKNKSRSFQLFGSPPGQRDLLFKDSALGFLRIPSKVDSALYLGSRYLTTLKNLRETAEEVKARYTRVVWCAVGPEEQKKCQQWSQQSGQNVTCATASTTDDCIVLVLKGEADALNLDGGYIYTAGKCGLVPVLAENRKSSKHSSLDCVLRPTEGYLAVAVVKKANEGLTWNSLKDKKSCHTAVDRTAGWNIPMGLIVNQTGSCAFDEFFSQSCAPGADPKSRLCALCAGDDQGLDKCVPNSKEKYYGYTGAFRCLAEDVGDVAFVKNDTVWENTNGESTADWAKNLNREDFRLLCLDGTRKPVTEAQSCHLAVAPNHAVVSRSDRAAHVKQVLLHQQALFGKNGKNCPDKFCLFKSETKNLLFNDNTECLAKLGGRPTYEEYLGTEYVTAIANLKKCSTSPLLEACAFLTR
Q: Which Body weight [1] does the source give for B1 here?
A: The Body weight was 27.9 ± 1.37 g.

Q: What about the Epididymal fat weight [1] of the same molecule?
A: The Epididymal fat weight was 0.82 ± 0.2 g.

Q: And the Body weight [2]?
A: The Body weight was 27.7 ± 2.19 g.

Q: What about the Epididymal fat weight [2] of the same molecule?
A: The Epididymal fat weight was 0.72 ± 0.28 g.

Q: And the “Epididymal fat weight and body weight vs control group (in words)” value?
A: The value was “cannot achieve significant efficiency”.

Source: patent US20100009014A1, “Use of composition for manufacture of medicant and method for inhibiting formation of body fat” (Maxluck Biotechnology Corp., priority 2008, published 2010)
